Test results reported in patent US11400139B2, “Anti-NET compounds for treating and preventing fibrosis and for facilitating wound healing” (THE CHILDREN'S MEDICAL CENTER CORPORATION, priority 2015, dated 2022).
Entries after “also recorded” stand apart in the source; their conditions may differ.

B1: DNase 1: DNase 1 (dornase alfa, Genentech), which disrupts NETs (protein, UniProt P24855 23-282, looked up)
Deoxyribonuclease-1: LKIAAFNIQTFGETKMSNATLVSYIVQILSRYDIALVQEVRDSHLTAVGKLLDNLNQDAPDTYHYVVSEPLGRNSYKERYLFVYRPDQVSAVDSYYYDDGCEPCGNDTFNREPAIVRFFSRFTEVREFAIVPLHAAPGDAVAEIDALYDVYLDVQEKWGLEDVMLMGDFNAGCSYVRPSQWSSIRLWTSPTFQWLIPDSADTTATPTHCAYDRIVVAGMLLRGAVVPDSALPFNFQAAYGLSDQLAQAISDHYPVEVMLK

Assays:
PAD4 expressing cells = conditions: Subramanian et al.; cited from earlier work
[1] = tested on: neutrophil extracellular traps; conditions: Subramanian et al.; cited from earlier work
NETs [2] = test: Full-thickness excisional skin wound healing with systemic DNase 1 treatment; format: in vivo, mouse
Method: Mice were induced to be diabetic using multiple low dose injections of streptozotocin (STZ). Six to 8-week old male C57BL/6 or PAD4^−/− mice were randomized into treatment groups of either vehicle or STZ according to their blood glucose levels and body weight at baseline. Mice were fasted for 5 hours and then injected with vehicle or STZ (i.p., 50 mg/kg per day, pH 4, dissolved in 0.1 M sodium citrate buffer) for 5 consecutive days. Fed blood glucose level was measured starting 1 week afterwards. Mice with fed blood glucose level above 300 mg/dL were considered diabetic and used for further experiments. Pancreatic islets were stained for insulin using a rabbit polyclonal anti-insulin antibody (1:500, Cell Signaling, Cat. no. 4590).
Full-thickness excisional wounds were made on the dorsal skin under aseptic conditions as described^22. Mice were anesthetized with ketamine and xylazine (100 mg/kg and 10 mg/kg, respectively, i.p.). Hair was removed and the skin was cleaned with 70% ethanol and betadine. A fold of the dorsal skin was then picked up along the midline, placed over dental wax and punched through with a 4-mm disposable sterile biopsy punch (Miltex) such that 2 wounds were generated in one punch. The procedure was repeated, thus 4 wounds were made per mouse. The mice were housed individually after wounding. In experiments involving diabetic mice, all mice were provided ad libitum with antibiotics (2.5% Sulfatrim) in drinking water. Wounds were digitally photographed using a Sony Camcorder and total wound areas were calculated using ImageJ software. Wound area was expressed as a percentage compared to the area on day 0 when the wounds were made.
Neutrophil recruitment and re-epithelialization were examined in H&E-stained sections. Wounds were cut in half, fixed overnight in zinc fixative and embedded in paraffin. The tissue was sectioned at 10 μm and stained with H&E. Images were acquired with the Zeiss Axiovision software using an Axioplan light microscope coupled to a color Zeiss HRc camera.
Normoglycemic and diabetic WT mice, randomized by blood glucose levels before assigning to treatments, were injected with 10 μg i.v. and 50 μg i.p. DNase 1 (dornase alfa, Genentech) 30 min before wounding and then 50 μg i.p. every 12 hours until wound collection on day 3. Control mice were injected with vehicle (8.77 mg/mL sodium chloride and 0.15 mg/mL calcium chloride)^40.

NETs [3] = conditions: pre-digestion of NETs with DNase 1, in vitro (Farrera and Fadeel); cited from earlier work
[4] = normoglycemic WT mice, three days post wounding

Molecule	cell killing (PAD4 expressing cells)	formation of neutrophil extracellular traps [1]	enhancement of re-epithelialization (NETs [2]; STZ-induced diabetic WT mice on antibiotics, day 3 post wounding)	promotion of wound area reduction (NETs [2]; STZ-induced diabetic WT mice on antibiotics, day 3 post wounding, 10 μg i.v. and 50 μg i.p. before wounding, then 50 μg i.p. every 12 hours)	wound healing (wound area reduction and re-epithelialization), in words (NETs [2]; WT mice, diabetic and normoglycemic)	further benefit in wound healing (NETs [2]; diabetic PAD4−/− mice, day 3 post wounding)	enhancement of re-epithelialization (NETs [2]; [4])	neutrophil recruitment to the wound (NETs [2]; [4])	wound area versus vehicle (NETs [2]; [4])	clearance of NETs by macrophages (NETs [3])
CC(C)(C)n1nnc([C@H](CCCNC(=N)CCl)NC(=O)c2ccc(-c3ccccc3)cc2)n1 [BTT-Cl-amidine, biphenyl tetrazole tert-butyl Cl-amidine]	enhanced cell killing	blocks the formation								
B1			> 75%	> 20%	accelerated wound healing; also recorded: facilitated wound area reduction	did not provide further benefits; also recorded: did not provide additional benefits	~54%	not affected	smaller than in those treated with vehicle	accelerated their clearance
